Results from IntAct's records for PubMed 18946488.

B1: Rho-related GTP-binding protein RhoE (Mus musculus), P61588 (parent)
chain: MKERRASQKLSSKSIMDPNQNVKCKIVVVGDSQCGKTALLHVFAKDCFPENYVPTVFENYTASFEIDTQRIELSLWDTSGSPYYDNVRPLSYPDSDAVLICFDISRPETLDSVLKKWKGEIQEFCPNTKMLLVGCKSDLRTDVSTLVELSNHRQTPVSYDQGANMAKQIGAATYIECSALQSENSVRDIFHVATLACVNKTNKNVKRNKSQRATKRISHMPSRPELSAVATDLRKDKAKSCTVM

Variants of: B1
Conditions: with rock1_mouse Rock1, P70335
rock1_mouse Rock1, P70335, sequence (P70335 whole entry): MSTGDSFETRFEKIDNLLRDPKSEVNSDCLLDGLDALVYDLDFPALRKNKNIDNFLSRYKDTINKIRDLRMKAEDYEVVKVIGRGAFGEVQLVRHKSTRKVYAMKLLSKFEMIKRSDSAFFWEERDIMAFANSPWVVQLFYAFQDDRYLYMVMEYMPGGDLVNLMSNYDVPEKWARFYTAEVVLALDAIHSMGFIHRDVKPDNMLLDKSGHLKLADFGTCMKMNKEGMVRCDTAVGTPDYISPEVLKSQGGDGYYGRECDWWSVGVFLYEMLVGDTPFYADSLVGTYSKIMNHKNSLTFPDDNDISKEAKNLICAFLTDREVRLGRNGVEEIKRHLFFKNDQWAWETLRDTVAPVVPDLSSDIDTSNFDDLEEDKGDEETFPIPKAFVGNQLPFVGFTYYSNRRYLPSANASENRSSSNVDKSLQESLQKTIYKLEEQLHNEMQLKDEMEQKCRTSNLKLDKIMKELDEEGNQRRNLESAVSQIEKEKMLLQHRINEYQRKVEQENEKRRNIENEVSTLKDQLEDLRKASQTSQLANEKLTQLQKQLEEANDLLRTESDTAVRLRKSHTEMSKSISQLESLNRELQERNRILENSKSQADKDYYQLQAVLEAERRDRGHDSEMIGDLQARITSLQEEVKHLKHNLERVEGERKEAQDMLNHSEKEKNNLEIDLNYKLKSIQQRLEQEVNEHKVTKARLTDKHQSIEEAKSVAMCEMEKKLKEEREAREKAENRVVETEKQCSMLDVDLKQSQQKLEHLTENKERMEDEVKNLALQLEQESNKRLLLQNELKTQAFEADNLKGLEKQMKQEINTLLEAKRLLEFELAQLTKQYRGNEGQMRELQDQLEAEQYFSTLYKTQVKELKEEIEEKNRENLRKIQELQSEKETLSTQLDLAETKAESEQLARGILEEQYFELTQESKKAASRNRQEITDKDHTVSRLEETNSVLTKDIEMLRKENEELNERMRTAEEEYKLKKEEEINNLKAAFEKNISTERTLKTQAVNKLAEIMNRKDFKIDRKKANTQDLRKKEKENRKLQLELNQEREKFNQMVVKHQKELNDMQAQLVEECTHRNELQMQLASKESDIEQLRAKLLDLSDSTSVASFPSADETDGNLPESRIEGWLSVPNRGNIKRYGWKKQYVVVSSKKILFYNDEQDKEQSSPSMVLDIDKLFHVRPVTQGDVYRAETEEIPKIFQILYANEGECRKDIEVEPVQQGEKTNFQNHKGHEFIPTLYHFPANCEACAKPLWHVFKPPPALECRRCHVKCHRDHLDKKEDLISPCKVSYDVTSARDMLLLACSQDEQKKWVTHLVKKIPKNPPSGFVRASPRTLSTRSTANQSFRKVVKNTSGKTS
T173R was tested, and the “effect of a mutation on the interaction” value was “disrupting interaction”.

Variants of: B1
Conditions: with rock1_mouse Rock1, P70335
Remark: another data set of the same source
For V192R, the “effect of a mutation on the interaction” value was “disrupting interaction”.
